In test [1] the target is mutant outer-arm dynein (OAD) of the Chlamydomonas mutant 214 (oda6E279K), carrying IC2 E279K (Chlamydomonas reinhardtii (endogenous in flagellar axonemes)) (UniProt Q39610).
For test [2], the target named is wild-type outer-arm dynein (OAD) of Chlamydomonas (Chlamydomonas reinhardtii (endogenous in flagellar axonemes)) (UniProt Q39610).

In test [1], “mutant outer-arm dynein (OAD) of the Chlamydomonas mutant 214 (oda6E279K), carrying IC2 E279K (from UniProt Q39610 1-4499; Q39565 1-4568; Q39575 1-4485; Q39578 1-683; P27766 1-567) (complex)” registered a microtubule sliding speed in microtubule bundles formed with OAD, on perfusion with 1 mM ATP of 4.3 μm/sec.
Consider “wild-type outer-arm dynein (OAD) of Chlamydomonas (from UniProt Q39610 1-4499; Q39565 1-4568; Q39575 1-4485; Q39578 1-683; P27766 1-567) (complex)”, for which the microtubule sliding speed in microtubule bundles formed with OAD, on perfusion with 1 mM ATP in test [2] worked out at 35.3 μm/sec.
